Experimental data reported in patent US20200352995A1.

Legend:
[1] = target: OX40 (CD134) on BCMA-specific CTL (human) (UniProt P43489); assay: cell-based or functional assay
[2] = target: LAG3 (CD223) on BCMA-specific CTL (human) (UniProt P18627); assay: cell-based or functional assay
LAG3 (CD223) on BCMA-specific CTL (human), sequence (P18627 23-525): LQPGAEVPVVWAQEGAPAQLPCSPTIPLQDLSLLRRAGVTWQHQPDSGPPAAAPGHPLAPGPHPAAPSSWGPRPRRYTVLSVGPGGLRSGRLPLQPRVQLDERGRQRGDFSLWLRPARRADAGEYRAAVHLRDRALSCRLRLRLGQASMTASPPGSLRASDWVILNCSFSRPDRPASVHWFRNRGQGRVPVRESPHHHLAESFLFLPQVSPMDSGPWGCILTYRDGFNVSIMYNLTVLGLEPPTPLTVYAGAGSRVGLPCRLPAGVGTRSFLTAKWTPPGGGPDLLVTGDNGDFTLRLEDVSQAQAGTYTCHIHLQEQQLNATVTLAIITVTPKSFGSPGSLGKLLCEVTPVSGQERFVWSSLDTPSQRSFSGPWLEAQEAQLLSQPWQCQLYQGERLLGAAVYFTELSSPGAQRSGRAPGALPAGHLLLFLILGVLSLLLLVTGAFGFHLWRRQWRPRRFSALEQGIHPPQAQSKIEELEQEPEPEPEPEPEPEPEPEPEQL

OX40 (CD134) on BCMA-specific CTL (human), sequence (P43489 29-277): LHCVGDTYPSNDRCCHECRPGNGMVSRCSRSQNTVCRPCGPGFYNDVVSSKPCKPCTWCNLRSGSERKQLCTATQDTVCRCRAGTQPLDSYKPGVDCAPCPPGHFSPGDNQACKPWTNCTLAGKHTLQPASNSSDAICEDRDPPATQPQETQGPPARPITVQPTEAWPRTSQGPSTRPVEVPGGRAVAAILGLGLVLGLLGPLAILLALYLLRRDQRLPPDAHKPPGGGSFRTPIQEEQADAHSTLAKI

| Substance | cytotoxic activity (CD107a degranulation) by memory CTL against HLA-A2+ McCAR MM cells [1] | cytotoxic activity (CD107a degranulation) by memory CTL against HLA-A2+ U266 MM cells [1] | cytotoxic activity (CD107a degranulation) by memory CTL against HLA-A2+ McCAR MM cells [2] | cytotoxic activity (CD107a degranulation) by memory CTL against HLA-A2+ U266 MM cells [2] |
| --- | --- | --- | --- | --- |
| Clinical grade mAb to OX40 (Bristol-Myers Squibb) (antibody) | 20% | 39.5% |  |  |
| Clinical grade mAb to LAG3 (Bristol-Myers Squibb) (antibody) |  |  | 14.5% | 35.8% |
